Key:
[1] = target: Andes virus (ANDV) envelope glycoprotein Gc, wild type (Andes virus) (UniProt Q9E006); assay: native gel or EMSA
[2] = target: Andes virus (ANDV) envelope glycoprotein Gc, wild type (Andes virus) (UniProt Q9E006); assay: sucrose gradient sedimentation

## Andes virus (ANDV) envelope glycoprotein Gc, wild type (from UniProt Q9E006) (natural protein)
[1]
  stoichiometry N: 3
[2]
  stoichiometry N: 3

Reference: PMC6609335
